Target: bovine FSH hormone receptor expressed on HEK 293T cells (bovine) (UniProt P35376)
Experiment: cell-based or functional assay

Chain of UniProt P35376 (P35376 18-695): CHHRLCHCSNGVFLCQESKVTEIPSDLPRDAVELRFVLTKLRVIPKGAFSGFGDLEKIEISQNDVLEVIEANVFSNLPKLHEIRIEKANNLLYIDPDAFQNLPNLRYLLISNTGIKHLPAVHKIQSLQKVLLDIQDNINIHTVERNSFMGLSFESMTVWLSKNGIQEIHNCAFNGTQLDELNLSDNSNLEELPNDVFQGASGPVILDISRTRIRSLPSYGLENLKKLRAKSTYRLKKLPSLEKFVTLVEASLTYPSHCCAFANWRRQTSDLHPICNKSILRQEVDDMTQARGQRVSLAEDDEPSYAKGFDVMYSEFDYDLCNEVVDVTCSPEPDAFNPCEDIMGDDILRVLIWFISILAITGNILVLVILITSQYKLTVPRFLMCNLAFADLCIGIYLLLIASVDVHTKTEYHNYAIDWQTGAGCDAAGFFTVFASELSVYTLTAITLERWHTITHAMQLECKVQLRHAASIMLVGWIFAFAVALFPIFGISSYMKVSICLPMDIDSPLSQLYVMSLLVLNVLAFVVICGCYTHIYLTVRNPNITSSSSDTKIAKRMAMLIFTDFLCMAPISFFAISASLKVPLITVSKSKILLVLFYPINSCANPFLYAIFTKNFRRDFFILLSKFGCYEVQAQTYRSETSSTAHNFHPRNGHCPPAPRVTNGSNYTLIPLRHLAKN

| Estimated potency in vitro (sample 5G) | biological activity in vitro by stimulation of luciferase activity | in vitro FSH activity (CRE-luciferase reporter, HEK 293T cells with bovine FSH receptor); affinity purified construct #5 from transiently transfected CHO cells | Substance |
| --- | --- | --- | --- |
| 6200 IU/mg | 4010 IU/mg | 61 IU | recombinant single chain equine chorionic gonadotropin NTP-BetaCTP-CTP-Alpha (CONSTRUCT #5) (ligand) |
| – | 4770 IU/mg | – | recombinant single chain equine chorionic gonadotropin CTP-BetaCTP-CTP-Alpha (CONSTRUCT #6) (ligand) |
| – | 13300 IU/mg | – | recombinant single chain equine chorionic gonadotropin BetaCTP-CTP-Alpha (CONSTRUCT #4) (ligand) |
